Positions count from the first letter of the chain named.

The chains are these.
B1: 30C10-PBD (antibody, human IgG1, V domains shown)
VH: QVQLVESGGGVVQPGRSLRLSCAASGFTFSSYGMHWVRQAPGKGLEWVAVIWYDGSDKYYADSVKGRFTISRDNSKKTLYLQMNSLRAEDTAVYFCARETIFRGLTITFFDHWGQGTLVTVSS
VL: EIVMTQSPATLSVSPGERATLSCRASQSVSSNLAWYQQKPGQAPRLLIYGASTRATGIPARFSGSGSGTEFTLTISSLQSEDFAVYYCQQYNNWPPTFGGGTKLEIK
modifications: MA-PEG8-VA-PAB-SG3199 (PBD) on TCEP-reduced hinge region thiols, sites not stated; DAR 1.7
B2: M1F1 (antibody, human IgG1, V domains shown)
VH: QVQLQESGPGLVKPSETLSLTCAVSGYSISSGYFWGWIRQPPGKKLEWIGSIYHSGSTYYNPSLKSRVTMSVDTSKNQFSLKLSSVTAADTAVYYCAREGDCSGGICYWYFDLWGRGTLVTVSS
VL: EIVMTQSPATLSVSPGERATLSCRASQSVSSNLAWYQQKPGQAPRLLIYGASTRATGIPARFSGSGSGTEVTLTISSLQSEDFAVYYCQQYNKWPLTFGGGTKVEIK
B3: 24F10 (antibody, V domains shown)
VH: B1 VH with A61T, K77N, F95Y, T100S, I101M, F102V, L105I, T106V, H112Y
VL: B2 VL with V71F, Y87S, Q90H, K93N, L96P
B4: 30C10 (antibody, human IgG1, V domains shown)
VH: B1 VH
VL: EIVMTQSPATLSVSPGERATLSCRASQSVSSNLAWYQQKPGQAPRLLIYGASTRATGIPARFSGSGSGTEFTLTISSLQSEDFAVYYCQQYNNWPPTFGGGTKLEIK
B5: 34B7 (antibody, human IgG1, V domains shown)
VH: QVQLVESGGGVVQPGRSLRLSCAASGFTFTSYGMHWVRQAPGKGLEWVAVVWYEGNSKFYIDSVKGRFIISRDNSKNTLYLQMNSLRAEDTAVYYCARAYCGDDCYPFDYWGQGTLVTVSS
VL: DIQMTQSPSSLSASVGDRVTITCRASQGISNYLAWYQQKPGKVPKLLIYAASTLQSGVPSRFSGSGSGTDFTLTISSLQPEDVATYYCQKYNSAPWTFGQGTKLEIK
B6: 36H6 (antibody, human IgG1, V domains shown)
VH: QVQLVESGGGVVQPGRSLRLSCAASGFTFSDYGMHWVRQAPGKGLEWVAVIWYEGGNKYYTDSVKGRFTISRDNSKNTLYLQMNSLRAEDTAVYYCARILLWFGESYGMDVWGQGTTVTVSS
VL: B5 VL with S93N, L104V
B7: 31B7 (antibody, human IgG1, V domains shown)
VH: QVQLVESGGGVVQPGRSLRLSCAASGFTFSSYGMHWVRQAPGKGLEWVAVIWYNGINKYYADSVKGRFTISRDASKNTLYLQMNSLRAEDTAVYYCAREGLLWFGGMDVWGQGTTVTVSS
VL: EIVLTQSPLSLPVTPGEPASISCRSSQSLLHSNGYNYLHWYLQKPGQSPQLLIYLGSNRASGVPDRFSGSRSGTDFTLKIIRVEAEDVGVYYCMQALQTPYTFGQGTKLEIK
B8: M10 (antibody, human IgG1, V domains shown)
VH: QVQLVESGGGGVQPGRSLRLSCAASGFTFSRYGMHWVRQAPGKGLEWVAVIWYDGSDEYYADSVKGRFTISRDNSKNTLYLQMNSLRAEDTAVYYCARETMGRGIIISYFDYWGQGTPVTVSS
VL: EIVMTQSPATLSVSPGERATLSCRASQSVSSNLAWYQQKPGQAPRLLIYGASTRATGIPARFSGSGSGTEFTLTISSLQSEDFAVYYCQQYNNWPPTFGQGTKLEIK

In one assay the target is T1, endogenous human TMEFF1 on cancer cell lines (H69, HCC1187, PA-1, H526, H1048) (human, UniProt Q8IYR6 40-380).
T1 sequence: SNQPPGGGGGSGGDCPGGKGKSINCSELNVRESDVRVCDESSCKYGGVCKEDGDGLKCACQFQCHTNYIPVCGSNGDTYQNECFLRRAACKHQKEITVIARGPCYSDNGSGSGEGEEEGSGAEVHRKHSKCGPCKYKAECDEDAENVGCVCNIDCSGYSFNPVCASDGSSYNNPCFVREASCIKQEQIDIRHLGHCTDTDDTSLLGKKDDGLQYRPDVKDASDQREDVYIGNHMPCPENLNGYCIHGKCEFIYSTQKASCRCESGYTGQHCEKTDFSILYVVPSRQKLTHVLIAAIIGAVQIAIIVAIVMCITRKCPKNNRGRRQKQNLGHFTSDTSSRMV
Kind of assay: cell-based or functional assay.
As to B1, the “IC50 of growth of H526 cells (CellTiter Glo, 5 days)” value worked out at 4.27 ng/mL and the “IC50 of growth of H1048 cells (CellTiter Glo, 5 days)” value came out at 0.53 ng/mL.

A further assay has as its target T2, human TMEFF1 extracellular domain recombinant protein (plasmid BBP377, S40-V330, C-terminal 8xHis) (human, UniProt Q8IYR6 40-330).
T2 construct: Secreted from CHO cells with a non-native signal peptide (not part of the mature protein); also called hTMEFF1 ECD; hTMEFF1-ECD
T2 sequence: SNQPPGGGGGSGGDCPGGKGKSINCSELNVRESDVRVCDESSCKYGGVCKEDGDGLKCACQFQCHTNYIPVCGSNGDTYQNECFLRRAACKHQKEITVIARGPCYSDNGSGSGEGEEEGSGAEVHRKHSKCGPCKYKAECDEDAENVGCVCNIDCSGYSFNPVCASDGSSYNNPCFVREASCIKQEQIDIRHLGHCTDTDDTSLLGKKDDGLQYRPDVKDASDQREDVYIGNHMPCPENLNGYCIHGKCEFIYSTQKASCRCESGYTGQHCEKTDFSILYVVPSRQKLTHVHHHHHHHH
Kind of assay: BLI (Octet Red), antibody on Protein A biosensor, recombinant hTMEFF1 ECD as analyte. As for the experimental part:
(§1) The affinity of antibodies to various recombinant TMEFF1 protein was determined on an Octet Red™ instrument. After loading reagents into a 96-well plate, the Octet Red™ with Protein A-conjugated biosensors was programmed as follows: 30 seconds for baseline #1; 120 seconds to immobilize the antibody; 30 seconds for baseline #2; 300 seconds for association of antibody to recombinant TMEFF1; and 300-600 seconds for dissociation of recombinant TMEFF1 from the antibody.
Affinity of thirteen antibodies was calculated using hTMEFF1 ECD recombinant protein by Octet™.
Consider B2, for which the Kd came to 19 nM.
Still for that read-out and setting: as for B3, the figure is 50 nM; as for B4, 4 nM.
On to B5, for which the Kd is 20 nM.
Regarding B6, the equilibrium dissociation constant (Kd) turned out to be 51 nM.
On the same count and under the same terms, as for B7, the figure is 43 nM; as for B8, 9 nM.

The next assay concerns the target T3, Macaca fascicularis TMEFF1 extracellular domain recombinant protein (plasmid BBP480, S40-V330, C-terminal … (Macaca fascicularis)).
T3 construct: range 40-330; also called cyTMEFF1 ECD; monkey TMEFF1 ectodomain
Kind of assay: BLI (Octet Red), antibody on Protein A biosensor, recombinant cyTMEFF1 ECD as analyte. The procedure: as §1
Affinity of 7 antibodies was calculated using cyTMEFF1 ECD recombinant protein by Octet™.
In the case of B2, the dissociation constant Kd came to 27 nM.
Consider B3, for which the Kd was 65 nM.
For B4, the dissociation constant Kd came to 7 nM.
As to B5, the Kd stood at 22 nM.
The same measure, in the same setting: as for B6, the figure is 96 nM; as for B7, 101 nM.
On the same count and under the same terms, to B8 belongs 7 nM.

(Values after patent publication US20200109194A1 (BLUEFIN BIOMEDICINE, published 2020).)
